Test results: article PMC8251270 (Journal of Leukocyte Biology, 2021)

Columns and labels:
[1] = target: recombinant receptor‐binding motif (RBM) of SARS‐CoV‐2 spike (S) protein, residue 437–508 (SARS-CoV-2, UniProt P0DTC2); assay: SPR; conditions: both partners purified
[2] = target: tetranectin (TN) of murine lung tissue (Mus musculus (lung tissue lysate), UniProt P43025); assay: Western blot; conditions: one partner purified
tetranectin (TN) of murine lung tissue, sequence (P43025 22-202): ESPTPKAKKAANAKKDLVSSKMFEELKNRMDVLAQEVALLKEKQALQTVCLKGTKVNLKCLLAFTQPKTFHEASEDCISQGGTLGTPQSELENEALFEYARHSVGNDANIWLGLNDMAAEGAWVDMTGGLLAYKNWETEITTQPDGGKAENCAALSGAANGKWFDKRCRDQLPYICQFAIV

| Binder | Kd [1] [nM] | binding result [2] |
| --- | --- | --- |
| mAb8 (antibody, V domains shown) VH: DVKLVESGGGLVKLGGSLKLSCAASGFTFSTDYMSWVRQSPEKRLELVAAINSNGGTTYYPDTVKGRFIISRDNAKNTLYLQMSSLRSEDTALYYCARQVKNGLDYWGQGTSVTVSS VL: DIQMTQTTSSLSASLGDRVTISCRASQDISNYLNWYQQKPDGTVKLLIYKTSRLHSGVPSRFRGSGSGTDYSLTISNLEEEDVATYFCQQGNTLPPTFGGGTKLEIK | 17.4 | binds |
| mAb2 (antibody, V domains shown) VH: DVKLVESGGGLVNLGGSLKLSCAASGFTFSSDYMSWVRQIPEKRLELVAAINSNGGTTYYPDTVKGRFTISRDNAKNTLYLQMSSLKSEDTALYYCARQGKNGMDYWGQGTSVTVSS VL: DIQMTQTTSSLSASLGDRVTISCRASQDISNHLNWYQQRPDGTVKLLIYYTSRLHSGVPSRFSGSGSGTDYSFTITNLDQEDIATYFCQQGKTLPPTFGGGTKLEIK | 62.8 | binds |
